Measurements as given in patent US20190300590A1 (PROTAGONIST THERAPEUTICS, published 2019).
*1 amine or outer side, *2 acyl side, *3 side chain or, on linkers, in order; H or OH if unused. Bridges are numbered along the chain shown (N, C = ends). Primed or numbered codes have the meaning given here. [ ]: non-standard residue; d: D form. Phe(4-OMe)(3) = O-methyl-L-tyrosine (4-methoxy-L-phenylalanine), COc1ccc(C[C@H](N[*:1])C(=O)[*:2])cc1; Phe(4-OMe)(5) = O-methyl-L-tyrosine (4-methoxy-Phe), COc1ccc(C[C@H](N[*:1])C(=O)[*:2])cc1; Phe(4-OMe)(4) = O-methyl-L-tyrosine, COc1ccc(C[C@H](N[*:1])C(=O)[*:2])cc1; Phe(3,4-(OMe)2) = COc1ccc(C[C@H](N)C(=O)O)cc1OC; Phe(4-CF3) = N[C@@H](Cc1ccc(C(F)(F)F)cc1)C(=O)O; Phe(4-tBu) = CC(C)(C)c1ccc(C[C@H](N)C(=O)O)cc1; Bip = N[C@@H](Cc1ccc(-c2ccccc2)cc1)C(=O)O; 2Nal = N[C@@H](Cc1ccc2ccccc2c1)C(=O)O; Ala(cPent) = N[C@@H](CC1CCCC1)C(=O)O; AEF = NCCOc1ccc(C[C@H](N)C(=O)O)cc1; Gly(octyl) = CCCCCCCC[C@H](N)C(=O)O; Cav = NC(N)=NOCC[C@H](N)C(=O)O; Pen = CC(C)(S)[C@H](N)C(=O)O; hLeu = CC(C)CC[C@H](N)C(=O)O; αMeK = C[C@](N)(CCCCN)C(=O)O; Orn = NCCC[C@H](N)C(=O)O; Abu = CC[C@H](N)C(=O)O; Dap = NC[C@H](N)C(=O)O; AEA = NCCOCC(=O)O

T1: IL23R_huFC (human, UniProt Q5VWK5 24-353)
T1 sequence (looked up): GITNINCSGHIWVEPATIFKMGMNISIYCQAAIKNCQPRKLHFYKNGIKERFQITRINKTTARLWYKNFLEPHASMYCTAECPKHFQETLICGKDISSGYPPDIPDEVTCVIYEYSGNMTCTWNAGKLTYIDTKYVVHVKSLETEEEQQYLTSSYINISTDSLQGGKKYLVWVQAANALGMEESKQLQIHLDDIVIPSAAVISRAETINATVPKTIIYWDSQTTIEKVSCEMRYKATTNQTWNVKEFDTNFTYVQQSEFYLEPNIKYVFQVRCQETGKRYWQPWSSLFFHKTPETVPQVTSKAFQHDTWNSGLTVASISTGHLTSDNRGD

T2: IL23R_huFC (human, UniProt Q5VWK5 24-353)
T2 sequence (looked up): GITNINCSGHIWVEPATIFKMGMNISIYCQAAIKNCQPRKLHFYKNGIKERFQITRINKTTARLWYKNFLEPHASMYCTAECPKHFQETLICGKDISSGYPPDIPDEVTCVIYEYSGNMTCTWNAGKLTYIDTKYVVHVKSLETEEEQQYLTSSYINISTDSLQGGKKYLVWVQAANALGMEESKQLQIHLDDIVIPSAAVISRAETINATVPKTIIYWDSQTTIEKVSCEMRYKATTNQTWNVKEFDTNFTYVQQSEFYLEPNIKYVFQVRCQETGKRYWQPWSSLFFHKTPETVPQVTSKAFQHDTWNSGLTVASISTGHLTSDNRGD


Molecular target: T1, IL23R_huFC
Assay: IL23-IL23R competitive ELISA

Row | IC50 | Binder
1 | < 500 nM | H-CRDWQCYWHKFG-NH2 (disulfide 1-6 (inferred)) [Hy-CRDWQCYWHKFG-NH2]
2 | < 500 nM | H-CSNWVCYWHTYG-NH2 (disulfide 1-6 (inferred)) [Hy-CSNWVCYWHTYG-NH2]
3 | < 500 nM | Ac-CQTWQCYWRK(Ac)NG-NH2 (disulfide 1-6 (inferred)) [Ac-CQTWQCYWR-[K-Ac]-NG-NH2]
4 | < 500 nM | CQTWQCYWRXNGXK (Ac-; [Dapa]; [AEA]; [(D)-Lys]; -NH2; disulfide) [Ac-CQTWQCYWR-[Dapa]-NG-[AEA]-[(D)-Lys]-NH2]
5 | < 500 nM | Ac-CQTWQCYWR[Orn]NG[AEA][dK]-NH2 (disulfide 1-6; SMILES CC(=O)N[C@H]1CSSC[C@@H](C(=O)N[C@@H](Cc2ccc(O)cc2)C(=O)N[C@@H](Cc2c[nH]c3ccccc23)C(=O)N[C@@H](CCCNC(=N)N)C(=O)N[C@@H](CCCN)C(=O)N[C@@H](CC(N)=O)C(=O)NCC(=O)NCCOCC(=O)N[C@H](CCCCN)C(N)=O)NC(=O)[C@H](CCC(N)=O)NC(=O)[C@H](Cc2c[nH]c3ccccc23)NC(=O)[C@H]([C@@H](C)O)NC(=O)[C@H](CCC(N)=O)NC1=O) [Ac-CQTWQCYWR-[Orn]-NG-[AEA]-[(D)-Lys]-NH2]
6 | < 500 nM | H-CRTWQCYWRKFG-NH2 (disulfide 1-6 (inferred)) [Hy-CRTWQCYWRKFG-NH2]

Further lines, the binder ahead of its results:

Row | Binder | IC50
7 | Ac-CADWVCYWHTYG-NH2 (disulfide 1-6 (inferred)) [Ac-CADWVCYWHTYG-NH2] | < 500 nM
8 | Ac-CTDWVCYWHTFG-NH2 (disulfide 1-6 (inferred)) [Ac-CTDWVCYWHTFG-NH2] | < 500 nM
9 | Ac-CTTWTCYWHQYG-NH2 (disulfide 1-6 (inferred)) [Ac-CTTWTCYWHQYG-NH2] | < 500 nM
10 | CADWVCYWHTFGAK (Ac-; [β-Ala]; [(D)Lys]; disulfide) [Ac-CADWVCYWHTFG-[β-Ala]-[(D)Lys]-OH] | < 500 nM
11 | Ac-CADWVCYWHTFGP[dK]-OH (disulfide 1-6 (inferred)) [Ac-CADWVCYWHTFGP-[(D)Lys]-OH] | < 500 nM
12 | Ac-CADWVCYWHTFG-OH (disulfide 1-6 (inferred)) [Ac-CADWVCYWHTFG-OH] | < 500 nM
13 | Ac-CADWVCYWHTFGA[dK]-OH (disulfide 1-6 (inferred)) [Ac-CADWVCYWHTFGA-[(D)Lys]-OH] | < 500 nM
14 | Ac-CADWVCYWHTFGAA[dK]-OH (disulfide 1-6 (inferred)) [Ac-CADWVCYWHTFGAA[(D)Lys]-OH] | < 500 nM
15 | Ac-CRTWECYWHEYG-NH2 (disulfide 1-6 (inferred)) [Ac-CRTWECYWHEYG-NH2] | < 500 nM
16 | Ac-CATWQCYWHEYG-NH2 (disulfide 1-6 (inferred)) [Ac-CATWQCYWHEYG-NH2] | < 500 nM
17 | Ac-CRTWECYWHEFG-NH2 (disulfide 1-6 (inferred)) [Ac-CRTWECYWHEFG-NH2] | < 500 nM
18 | Ac-CRTWQCYWHEYG-NH2 (disulfide 1-6 (inferred)) [Ac-CRTWQCYWHEYG-NH2] | < 500 nM
19 | Ac-CTTWECYWHEFG-NH2 (disulfide 1-6 (inferred)) [Ac-CTTWECYWHEFG-NH2] | < 500 nM
20 | Ac-CTTWECYWHEYG-NH2 (disulfide 1-6 (inferred)) [Ac-CTTWECYWHEYG-NH2] | < 500 nM
21 | Ac-CTTWECYWHQFG-NH2 (disulfide 1-6 (inferred)) [Ac-CTTWECYWHQFG-NH2] | < 500 nM
22 | Ac-CKTWTCYWHEFG-NH2 (disulfide 1-6 (inferred)) [Ac-CKTWTCYWHEFG-NH2] | < 500 nM
23 | Ac-CQTWQCYWRENG-NH2 (disulfide 1-6 (inferred)) [Ac-CQTWQCYWRENG-NH2] | < 500 nM
24 | Ac-CQTWQCYWLENG-NH2 (disulfide 1-6 (inferred)) [Ac-CQTWQCYWLENG-NH2] | < 500 nM
25 | Ac-CQTWQCYW[hLeu]ENG-NH2 (disulfide 1-6 (inferred)) [Ac-CQTWQCYW[-hLeu]-ENG-NH2] | < 500 nM
26 | Ac-CRTWECYWHEQS-NH2 (disulfide 1-6 (inferred)) [Ac-CRTWECYWHEQS-NH2] | < 500 nM
27 | Ac-CQTWECYWHLYG-NH2 (disulfide 1-6 (inferred)) [Ac-CQTWECYWHLYG-NH2] | < 500 nM
28 | Ac-CEDWKCYWHKYG-NH2 (disulfide 1-6 (inferred)) [Ac-CEDWKCYWHKYG-NH2] | < 500 nM
29 | Ac-CADWVCYWHRHADRVK-NH2 (disulfide 1-6 (inferred)) [Ac-CADWVCYWHRHADRVK-NH2] | < 500 nM
30 | Ac-CADWVCYWHTFGER-NH2 (disulfide 1-6 (inferred)) [Ac-CADWVCYWHTFGER-NH2] | < 500 nM
31 | Ac-CADWVCYWHTHGER-NH2 (disulfide 1-6 (inferred)) [Ac-CADWVCYWHTHGER-NH2] | < 500 nM
32 | Ac-DTPRCRTWECYWHTFG-NH2 (disulfide 5-10 (inferred)) [Ac-DTPRCRTWECYWHTFG-NH2] | < 500 nM
33 | Ac-CQTWQCYW[Cav]ENG-NH2 (disulfide 1-6 (inferred)) [Ac-CQTWQCYW-[Cav]-ENG-NH2] | < 500 nM
34 | Ac-CQTWQCYW[Ala(cPent)]ENG-NH2 (disulfide 1-6 (inferred)) [Ac-CQTWQCYW-[Cpa]-ENG-NH2] | < 500 nM

Molecular target: T2, IL23R_huFC
Assay: human ELISA vs IL-23

Row | Binder | IC50
35 | Ac-[Abu]QT[Phe(3,4-(OMe)2)]QC[AEF][2Nal][αMeK]ENG-NH2 (thioether 1-6) [Ac-Cyclo-[[Abu]-QT-[Phe(3,4-OMe)]-QC]-[Phe[4-(2-aminoethoxy)]]-[2-Nal]-[α-MeLys]-ENG-NH2] | ~3000 nM
36 | Ac-[Abu]QT[Phe(4-CF3)]QC[AEF][2Nal][αMeK]ENG-NH2 (thioether 1-6) [Ac-Cyclo-[[Abu]-QT-[Phe(4-CF3)]-QC]-[Phe[4-(2-aminoethoxy)]]-[2-Nal]-[α-MeLys]-ENG-NH2] | ~3000 nM
37 | Ac-[Abu]QTWQC[Gly(octyl)][2Nal][αMeK]K(Ac)NG-NH2 (thioether 1-6) [Ac-Cyclo-[[Abu]-QTWQC]-[Octgly]-[2-Nal]-[α-MeLys]-[Lys(Ac)]-NG-NH2] | ~10000 nM
38 | Ac-[Abu]QTYQC[Phe(4-OMe)(5)][2Nal][αMeK]K(Ac)NG-NH2 (thioether 1-6) [Ac-Cyclo-[[Abu]-QTYQC]-[Phe(4-OMe)]-[2-Nal]-[α-MeLys]-[Lys(Ac)]-NG-NH2] | ~10000 nM
39 | Ac-[Abu]QTWQ[dC]YW[hLeu]ENG-NH2 (thioether 1-6) [Ac-Cyclo-[Abu]-QTWQ-(D)Cys]]-YW-[hLeu]-ENG-NH2] | > 1000 nM
40 | Ac-[Abu]QTWQC[Phe(4-OMe)(3)][Gly(octyl)][αMeK]K(Ac)NG-NH2 (thioether 1-6) [Ac-Cyclo-[[Abu]-QTWQC]-[Phe(4-OMe)]-[Octgly]-[α-MeLys]-[Lys(Ac)]-NG-NH2] | ~10000 nM
41 | Ac-[Abu]QTWQC[Phe(4-OMe)(3)][Phe(4-tBu)][αMeK]ENG-NH2 (thioether 1-6) [Ac-Cyclo-[[Abu]-QTWQC]-[Phe(4-OMe)]-[Phe(4-tBu)]-[α-MeLys]-ENG-NH2] | > 1000 nM
42 | Ac-[Abu]QTWQC[AEF]W[αMeK]K(Ac)[Dap]G-NH2 (thioether 1-6) [Ac-Cyclo-[[Abu]-QTWQC]-[Phe[4-(2-aminoethoxy)]]-W-[α-MeLys]-[Lys(Ac)]-[Dap]-G-NH2] | > 1000 nM
43 | Ac-[Abu]QTWQ[Pen]YW[hLeu]ENG-NH2 (thioether 1-6) [Ac-Cyclo-[[Abu]-QTWQ-[Pen]]-YW-[hLeu]-ENG-NH2] | > 1000 nM
44 | Ac-[Abu]QT[Bip]QC[Phe(4-OMe)(4)][2Nal][αMeK]K(Ac)NG-NH2 (thioether 1-6) [Ac-Cyclo-[[Abu]-QT-[Bip]-QC]-[Phe(4-OMe)]-[2-Nal][α-MeLys]-[Lys(Ac)]-NG-NH2] | ~10000 nM
